Consider seven molecules from patent publication US20070087001A1 (CENTER FOR MOLECULAR MEDICINE AND IMMUNOLOGY, published 2007).

Test [1] deals with T1, Recombinant human placenta growth factor-2 (PlGF-2) (human) (UniProt P49763).
T1 sequence (looked up): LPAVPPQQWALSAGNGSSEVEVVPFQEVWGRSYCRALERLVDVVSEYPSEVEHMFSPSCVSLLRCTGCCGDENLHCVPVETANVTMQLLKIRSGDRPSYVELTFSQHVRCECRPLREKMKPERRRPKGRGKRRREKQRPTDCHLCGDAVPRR
As to the kind of experiment: cell-based or functional assay.

For test [2], the target named is T2, Recombinant human placenta growth factor-2 (PlGF-2) (human, UniProt P49763-3 19-170, limits assumed).
T2 sequence (looked up): T1 sequence (looked up)
As to the kind of experiment: cell-based or functional assay.

The target of test [3] is T2, Recombinant human placenta growth …. Briefly: cell-based or functional assay. The source holds these as a separate data set.
The target in test [4] is T3, Recombinant human VEGF 165 (human, UniProt P15692-4 27-191).
T3 construct: Bought protein
T3 sequence (P15692 other isoform, or with tags, fused parts or gaps limits assumed): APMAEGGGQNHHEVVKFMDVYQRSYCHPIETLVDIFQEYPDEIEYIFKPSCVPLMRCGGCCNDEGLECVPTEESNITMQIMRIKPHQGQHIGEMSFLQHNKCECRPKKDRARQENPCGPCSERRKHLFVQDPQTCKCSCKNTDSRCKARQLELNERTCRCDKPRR
Briefly: ELISA-based binding assay. (In general: An ELISA detects its analyte on a solid surface through an enzyme-linked reagent.)

Test [5] has as its target T2, Recombinant human placenta growth …. As to the kind of experiment: ELISA, free FLAG-tagged peptide on PlGF-coated wells.
For test [6], the target named is T4, Recombinant human Flt-1 fusion protein (human, UniProt P17948 27-756).
T4 construct: Bought fusion protein coated on plates at 10 µg/ml; also called VEGFR1; VEGF receptor I
T4 sequence (P17948 27-756): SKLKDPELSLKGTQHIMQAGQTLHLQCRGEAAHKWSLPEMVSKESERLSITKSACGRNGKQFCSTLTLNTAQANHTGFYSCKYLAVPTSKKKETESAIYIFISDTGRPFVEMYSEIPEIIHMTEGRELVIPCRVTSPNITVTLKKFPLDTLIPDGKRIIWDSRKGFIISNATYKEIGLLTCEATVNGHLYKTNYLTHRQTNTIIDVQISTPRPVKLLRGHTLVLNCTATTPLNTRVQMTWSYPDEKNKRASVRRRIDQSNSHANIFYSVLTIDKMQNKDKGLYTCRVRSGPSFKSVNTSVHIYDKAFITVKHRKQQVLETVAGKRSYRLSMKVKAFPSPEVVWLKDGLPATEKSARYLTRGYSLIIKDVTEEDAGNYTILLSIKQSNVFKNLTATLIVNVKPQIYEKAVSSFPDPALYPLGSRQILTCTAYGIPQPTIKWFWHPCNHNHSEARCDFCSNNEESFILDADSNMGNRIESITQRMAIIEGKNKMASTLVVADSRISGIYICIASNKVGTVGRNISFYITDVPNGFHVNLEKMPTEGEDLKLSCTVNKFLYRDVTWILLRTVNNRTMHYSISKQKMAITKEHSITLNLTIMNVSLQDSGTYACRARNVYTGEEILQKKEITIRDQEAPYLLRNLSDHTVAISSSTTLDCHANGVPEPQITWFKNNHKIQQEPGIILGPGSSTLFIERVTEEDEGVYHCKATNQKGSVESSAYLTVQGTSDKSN
Briefly: ELISA, free FLAG-tagged peptide on Flt-1-coated wells.

In test [7] the target is T3, Recombinant human VEGF 165. Briefly: ELISA, FLAG-tagged free peptide on VEGF165-coated wells, anti-FLAG detection.
For test [8], the target named is T4, Recombinant human Flt-1 fusion protein. Briefly: ELISA-based binding assay.
Test [9] addresses T1, Recombinant human placenta growth factor-2 (PlGF-2) (human). Briefly: phage ELISA on PlGF-coated plates, anti-M13-HRP detection; phage library background 0.003.

Ends that are not written are not given here.

On to “Human recombinant soluble Flt-1 (sFlt-1) (from UniProt P17948 27-756) (receptor)”, for which, in test [1], the Block of the stimulatory effect of PlGF on motility, MCF-7 was determined as 67%; the Block of the stimulatory effect of PlGF on motility, MDA-MB-231 turned out to be 55%; the Migrating cells (wound-healing assay, MCF-7, PlGF 2 nM + Flt-1 2 nM) (cells/100x field) was 10.4; the Migrating cells (wound-healing assay, MDA-MB-231, PlGF 2 nM + Flt-1 2 nM) (cells/100x field) was 19.1. Further, in [1], the Migrating cells (wound-healing assay, MDA-MB-468, PlGF 2 nM + Flt-1 2 nM) (cells/100x field) was 7.8; the Relative activity (wound-healing assay, MCF-7) (relative to PlGF-only = 100) was determined as 47; the Relative activity (wound-healing assay, MDA-MB-231) (relative to PlGF-only = 100) came out at 45; the Relative activity (wound-healing assay, MDA-MB-468) (relative to PlGF-only = 100) was found to be 53.

B1: Control peptide CPA (BP1 with A substituted for the H, R and D residues) (peptide)
peptide: SAAYALAIQLAASASSSSCV
With B1, in test [2], the “Relative activity (wound-healing assay, MDA-MB-231)” value was 106 relative to PlGF-only = 100 and the “Relative activity (wound-healing assay, MDA-MB-468)” value is 147 relative to PlGF-only = 100. In addition, in [3], the “Average fold-change in invading cells vs untreated (MCF-7, PlGF 0.2 nM + CPA 2 µg/ml)” value is 1 fold vs untreated; the “Average fold-change in invading cells vs untreated (MDA-MB-231, PlGF 0.2 nM + CPA 2 µg/ml)” value stood at 4.9 fold vs untreated; the “Average fold-change in invading cells vs untreated (MDA-MB-468, PlGF 0.2 nM + CPA 2 µg/ml)” value is 1.2 fold vs untreated. The binding result in test [4] was “binds”.

B2: Binding Peptide 1 (BP1), synthetic peptide (peptide)
peptide: SHRYRLAIQLHASDSSSSCV
Regarding B2, in [2], the “Relative activity (wound-healing assay, MCF-7)” value was 45 relative to PlGF-only = 100; the “Relative activity (wound-healing assay, MDA-MB-231)” value is 32 relative to PlGF-only = 100; the “Relative activity (wound-healing assay, MDA-MB-468)” value is 97 relative to PlGF-only = 100. In addition, in test [3], the “Average fold-change in invading cells vs untreated (MCF-7, PlGF 0.2 nM + BP1 2 µg/ml)” value turned out to be 0.3 fold vs untreated; the “Average fold-change in invading cells vs untreated (MDA-MB-231, PlGF 0.2 nM + BP1 2 µg/ml)” value came to 1.3 fold vs untreated; the “Average fold-change in invading cells vs untreated (MDA-MB-468, PlGF 0.2 nM + BP1 2 µg/ml)” value stood at 0.6 fold vs untreated.

B3: Peptide BP3 synthesized with a linker and a C-terminal FLAG epitope (peptide, not shown: small tags and cut ends)
peptide: QEAFNRLTSRMHDYKDDDDK
modifications: also: linker between peptide and FLAG epitope, sequence not given here
For B3, the results for the binding result in test [5] and in test [6] were “no binding (tested: 50 µM)” and “no binding”, respectively.

B4: Peptide BP4 synthesized with a linker and a C-terminal FLAG epitope (peptide, not shown: small tags and cut ends)
peptide: RMPYSEHSAPLGDYKDDDDK
modifications: also: linker between peptide and FLAG epitope, sequence not given here
Regarding B4, the binding result in test [5] is recorded as “no binding (tested: 50 µM)”; in test [6], “no binding”.

B5: Peptide BP1 (Binding Peptide 1) synthesized with a linker and a C-terminal FLAG epitope (peptide, not shown: small tags and cut ends)
peptide: SHRYRLAIQLHASDSSSSCVDYKDDDDK
modifications: also: linker between peptide and FLAG epitope, sequence not given here
notes: detected by probing for FLAG
For B5, the A490 in [7] came to 0.299 A490. For the same molecule, the fold over background in test [8] worked out at 10 fold over background.

B6: Phage BP1 (BP1 peptide displayed on M13 phage) (peptide, not shown: large carriers; small tags and cut ends)
peptide: SHRYRLAIQLHASDSSSSCV
modifications: also: displayed on M13 phage, fused to pIII coat protein, spacer and fusion end not given here
B6: in [9], the absorbance (410 nm) was found to be 0.024 A410.
